This assay deals with T1, Aurora A kinase (endogenous, MDA-MB-231 cells) (human, UniProt O14965 1-403).
T1 sequence (looked up): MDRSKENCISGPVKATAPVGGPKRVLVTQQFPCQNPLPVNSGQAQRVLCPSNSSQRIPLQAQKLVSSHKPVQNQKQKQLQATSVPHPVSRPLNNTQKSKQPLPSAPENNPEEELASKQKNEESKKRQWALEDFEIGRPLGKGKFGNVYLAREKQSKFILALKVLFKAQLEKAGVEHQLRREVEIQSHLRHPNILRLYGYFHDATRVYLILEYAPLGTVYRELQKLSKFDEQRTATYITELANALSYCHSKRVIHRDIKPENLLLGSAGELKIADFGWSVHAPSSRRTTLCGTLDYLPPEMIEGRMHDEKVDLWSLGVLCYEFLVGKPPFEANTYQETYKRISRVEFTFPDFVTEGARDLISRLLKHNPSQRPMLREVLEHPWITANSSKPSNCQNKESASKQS
The experiment in a line: HA-tagged truncated LIMK2 mutants expressed in MDA cells, isolated and analyzed for Aurora A binding. Here is the method: LIMK2 contains two LIM domains (12-129), a PDZ domain (152-236), an S/P domain (240-328) and a kinase domain (331-601) (Scott and Olson (2007) J. Mol. Med. 85, 555-568). […] These mutants were transiently expressed in MDA cells, isolated and analyzed for Aurora A binding.
We next investigated whether association of LIM domains of LIMK2 is sufficient for Aurora A stabilization. […] After 30 h, cells were lysed, HA-tagged LIMK2 proteins were isolated and probed for Aurora A binding. […] After 30 h, cells were lysed, HA-tagged LIMK2 proteins were isolated and probed for Aurora A binding.

B1: HA-tagged (1-145) LIMK2 (other, not shown: small tags and cut ends)
chain: MSALAGEDVWRCPGCGDHIAPSQIWYRTVNETWHGSCFRCSECQDSLTNWYYEKDGKLYCPKDYWGKFGEFCHGCSLLMTGPFMVAGEFKYHPECFACMSCKVIIEDGDAYALVQHATLYCGKCHNEVVLAPMFERLSTESVQEQ
notes: also called truncated LIMK2 mutant containing two LIM domains
As for B1, the binding result is on record as “binds”.

The values above are taken from patent US20130253037A1 (PURDUE RESEARCH FOUNDATION, published 2013).
